The record followed here is publication PMC2900306, “Integration Preferences of Wildtype AAV-2 for Consensus Rep-Binding Sites at Numerous Loci in the Human Genome”.

Data set [1] concerns the target T1, MBP-Rep78 (Adeno-associated virus type 2 (AAV-2)?, UniProt Q89268 1-621).
T1 sequence: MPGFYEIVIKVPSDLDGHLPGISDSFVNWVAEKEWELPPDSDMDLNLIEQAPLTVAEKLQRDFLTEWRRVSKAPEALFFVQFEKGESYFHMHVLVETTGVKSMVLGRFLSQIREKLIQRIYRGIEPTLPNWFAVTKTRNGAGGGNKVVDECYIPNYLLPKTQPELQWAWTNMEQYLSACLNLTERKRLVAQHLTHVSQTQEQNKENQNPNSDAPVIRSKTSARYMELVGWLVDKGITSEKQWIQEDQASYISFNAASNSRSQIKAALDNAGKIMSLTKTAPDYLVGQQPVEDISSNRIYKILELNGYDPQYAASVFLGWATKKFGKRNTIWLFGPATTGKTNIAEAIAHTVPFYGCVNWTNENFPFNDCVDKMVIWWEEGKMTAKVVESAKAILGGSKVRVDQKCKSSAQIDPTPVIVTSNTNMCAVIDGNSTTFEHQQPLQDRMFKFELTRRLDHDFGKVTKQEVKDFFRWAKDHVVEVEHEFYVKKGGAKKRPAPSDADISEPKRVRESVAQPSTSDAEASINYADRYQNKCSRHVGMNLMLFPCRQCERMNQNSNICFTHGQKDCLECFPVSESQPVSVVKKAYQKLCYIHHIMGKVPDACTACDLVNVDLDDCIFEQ
Put plainly: EMSA; 10 mM Mg2+; 25 mM HEPES-KOH pH 7.8, 10 mM MgCl2, 40 mM NaCl, 1 mM DTT, 2% glycerol, 12.5 ug/ml BSA, 0.01% Nonidet P40, 5 ug/ml salmon sperm DNA; 0.015 pmol probe; 20 min at 20 C. The following applies: protein: recombinant; MBP fusion; label: 32P 5' end label; blunt. (In general: Mobility shift assays separate free from complexed probe on a gel.)

Data set [2] deals with T1, MBP-Rep78. As to the kind of experiment: EMSA; among the highest affinities; 10 mM Mg2+; 25 mM HEPES-KOH pH 7.8, 10 mM MgCl2, 40 mM NaCl, 1 mM DTT, 2% glycerol, 12.5 ug/ml BSA, 0.01% Nonidet P40, 5 ug/ml salmon sperm DNA; 0.015 pmol probe; 20 min at 20 C. Particulars: protein: recombinant; MBP fusion; label: 32P 5' end label; blunt.

B1: Chr. 3p24.3 (AAVS3) (dsDNA)
DNA 1: GTGAGGAGTGAGTGAGTGAGCGAGCGCACATTCATTCCCCTTGGGAAGC
DNA 2: GCTTCCCAAGGGGAATGAATGTGCGCTCGCTCACTCACTCACTCCTCAC
As to B1, the binding signal in the data set with MBP-Rep78 [1] was 2 fold of AAVS1 affinity.

B2: AAV p5 (nt 245-292) (dsDNA)
DNA 1: TCACGCTGGGTATTTAAGCCCGAGTGAGCACGCAGGGTCTCCATTTTG
DNA 2: CAAAATGGAGACCCTGCGTGCTCACTCGGGCTTAAATACCCAGCGTGA
Regarding B2, the binding result with MBP-Rep78 [2] is on record as “binds”.

B3: AAV-ITR (A-stem, nt 85-133) (dsDNA)
DNA 1: GCCTCAGTGAGCGAGCGAGCGCGCAGAGAGGGAGTGGCCAACTCCATCA
DNA 2: TGATGGAGTTGGCCACTCCCTCTCTGCGCGCTCGCTCGCTCACTGAGGC
Consider B3, for which the binding result with MBP-Rep78 [2] is “binds”.
